The text below walks through data of patent publication US20220073608A1 (JIANGSU HUAIYU PHARMACEUTICAL, published 2022).

Assay [1] deals with T1, human SEMA4D, full length, on CHO-K1 cells (CHO-K1 hSEMA4D) (human, UniProt Q92854 22-862).
T1 construct: whole, on cells; also called human SEMA4D recombinant cells
T1 sequence (looked up): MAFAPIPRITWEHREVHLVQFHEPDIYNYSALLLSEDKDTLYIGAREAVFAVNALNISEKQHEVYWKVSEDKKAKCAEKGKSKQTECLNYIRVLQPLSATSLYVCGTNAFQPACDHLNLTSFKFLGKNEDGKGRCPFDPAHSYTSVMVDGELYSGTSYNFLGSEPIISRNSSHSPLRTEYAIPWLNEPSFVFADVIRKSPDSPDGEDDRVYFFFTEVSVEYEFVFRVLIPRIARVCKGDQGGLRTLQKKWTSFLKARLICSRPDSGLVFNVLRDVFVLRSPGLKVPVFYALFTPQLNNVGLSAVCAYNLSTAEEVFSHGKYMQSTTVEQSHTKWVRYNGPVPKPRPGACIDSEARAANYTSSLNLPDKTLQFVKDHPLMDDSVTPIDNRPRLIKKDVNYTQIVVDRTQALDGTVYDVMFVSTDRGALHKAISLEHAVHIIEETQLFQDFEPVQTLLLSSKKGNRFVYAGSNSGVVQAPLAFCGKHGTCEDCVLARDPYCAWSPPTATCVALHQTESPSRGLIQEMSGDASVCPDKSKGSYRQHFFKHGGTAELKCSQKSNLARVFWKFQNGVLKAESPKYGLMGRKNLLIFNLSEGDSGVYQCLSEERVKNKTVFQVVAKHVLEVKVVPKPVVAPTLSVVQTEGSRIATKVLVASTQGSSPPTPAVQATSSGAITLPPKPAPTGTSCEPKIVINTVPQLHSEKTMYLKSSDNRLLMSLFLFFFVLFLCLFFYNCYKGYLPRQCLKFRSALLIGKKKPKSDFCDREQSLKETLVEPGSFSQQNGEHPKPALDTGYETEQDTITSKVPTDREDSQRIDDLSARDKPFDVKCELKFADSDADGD
Nature of the assay: FACS, CHO-K1 hSEMA4D cells; Ab 0.107 nM. The procedure: The medium was aspirated, the cells were washed once with PBS buffer (purchased from Invitrogen), and then treated with cell dissociation fluid (TrypLE™ Express Enzyme, purchased from Life technology), and the cells were collected. After the cells counted, the cells were washed once with PBS phosphate buffer, and diluted to 3×10⁶ cells per milliliter, and added to the 96-well FACS reaction plate as 100 μL per well. 2% (w/w) fetal calf serum was added to PBS phosphate buffer as FACS buffer, with which the cells were washed once by centrifugation at 2000 rpm 4° C. 100 μL of diluted and purified leading antibodies was added to each well and the plate was incubated for 1 hour on ice. […] Cells were washed 2 times by centrifugation with FACS buffer. The cells were suspended with 200 μL of FACS buffer, and FACS (FACS Verse, purchased from BD) was used to detect and analyze the results.

In assay [2] the target is T2, monkey SEMA4D, full length, on CHO-K1 cells (CHO-K1 cSEMA4D) (monkey).
T2 construct: whole, on cells; also called monkey SEMA4D recombinant cells
As to the kind of experiment: FACS, CHO-K1 cSEMA4D cells; Ab 66.7 nM. Here is the method:
(§1) After the cells were counted, they were diluted with PBS to 2×10⁶ cells per milliliter. After washing, 100 μL of diluted and purified leading antibodies was added to each well and the plate was incubated for 1 hour on ice. […] Cells were washed 2 times by centrifugation with FACS buffer. The cells were suspended with 200 μL of FACS buffer, FACS (FACS Verse, purchased from BD) was used to detect and analyze the results.
For orientation: A flow cytometer gives signals particle by particle.

Assay [3] deals with T3, mouse SEMA4D, full length, on CHO-K1 cells (CHO-K1 mSEMA4D) (mouse, UniProt O09126 24-861).
T3 construct: whole, on cells; also called murine SEMA4D recombinant cells
T3 sequence (looked up): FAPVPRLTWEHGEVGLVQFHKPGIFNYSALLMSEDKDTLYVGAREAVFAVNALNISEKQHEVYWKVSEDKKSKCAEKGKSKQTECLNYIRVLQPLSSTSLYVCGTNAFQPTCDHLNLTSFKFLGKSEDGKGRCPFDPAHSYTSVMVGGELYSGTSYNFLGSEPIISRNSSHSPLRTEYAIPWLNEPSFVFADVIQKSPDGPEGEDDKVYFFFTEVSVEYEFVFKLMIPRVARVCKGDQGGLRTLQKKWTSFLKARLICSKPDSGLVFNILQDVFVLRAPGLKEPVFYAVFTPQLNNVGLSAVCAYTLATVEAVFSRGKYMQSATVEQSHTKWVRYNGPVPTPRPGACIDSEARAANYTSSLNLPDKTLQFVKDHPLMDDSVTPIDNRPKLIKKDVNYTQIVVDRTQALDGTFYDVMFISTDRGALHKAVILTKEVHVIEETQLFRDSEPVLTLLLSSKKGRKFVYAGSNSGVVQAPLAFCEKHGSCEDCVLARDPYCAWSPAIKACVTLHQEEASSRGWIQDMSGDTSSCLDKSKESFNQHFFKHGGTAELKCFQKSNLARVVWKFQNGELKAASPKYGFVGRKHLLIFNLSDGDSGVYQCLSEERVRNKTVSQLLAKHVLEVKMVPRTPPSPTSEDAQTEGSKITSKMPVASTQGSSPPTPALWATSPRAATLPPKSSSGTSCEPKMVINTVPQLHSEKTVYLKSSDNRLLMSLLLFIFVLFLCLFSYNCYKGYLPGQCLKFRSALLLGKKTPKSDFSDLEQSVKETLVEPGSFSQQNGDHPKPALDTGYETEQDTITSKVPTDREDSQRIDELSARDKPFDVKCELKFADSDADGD
As to the kind of experiment: FACS, CHO-K1 mSEMA4D cells; Ab 66.7 nM. The procedure:
as §1

Assay [4] has as its target T2, monkey SEMA4D, full length, on CHO-K1 …. Nature of the assay: FACS, CHO-K1 cSEMA4D cells; Ab 0.0213 nM. Here is the method: as §1
Assay [5] addresses T3, mouse SEMA4D, full length, on CHO-K1 …. Nature of the assay: FACS, CHO-K1 mSEMA4D cells; Ab 0.000853 nM. The procedure: as §1

B1: 37C4F7 (antibody, V domains shown)
VH: EFQLQQSGPEVVKPGASVKISCKASGYSFTDYNMNWMKQSKGKSLEWIGVINPNYGTTTYNQNFKGKATLTVDQSSSTAYMQLNSLTSEDSAVYYCARDMYYVYAYYTMDYWGQGTSVTVSS
VL: DVVMTQTPLSLPVSLGDQASISCRSSQSLVHSNGHTYLHWYLQRPGQSPTLLIYKVSNRFSGVPDRFSGSGSGTDFTLKISRVEAEDLGVYFCSQGTHVPWTFGGGTKLEIK
notes: Mouse monoclonal antibody purified from hybridoma supernatant on protein A
Turning to B1, the MFI in assay [1] came out at 210; in assay [2], 2900; in assay [3], 30; in assay [4], 79.4; in assay [5] it was 30.2.

B2: 38H2E3 (antibody, V domains shown)
VH: EFQLQQSGPEVVKPGASVKISCKASGYSFTDYNMNWMKQSKGKSLEWIGVISPDYGTTTYNQNFKDKATLTVDQSSSTAYMQLNSLTSEDSAVYYCAKDMYYVYAYYTMDYWGHGTSVTVSS
VL: DVVMTQTPLSLPVSLGDQASISCRSSQSLVHSNGHTYLHWYLQRPGQSPTLLIYKVSNRFSGVPDRVSGSGSGTDFTLKISRVEAEDLGVYFCSQGTHVPRTFGGGTKLEIK
notes: as for B1
With B2, the MFI is 215 in assay [1]; 2890 in assay [2]; 30 in assay [3]; 69.1 in assay [4]; 30.1 in assay [5].

B3: 32C8F10 (antibody, V domains shown)
VH: EVQLQQSGAELVRPGASVKLSCTASGFNIKDEYIHWVKQRPEQGLEWIGWIDPANGHTEYASRFQAKATITADTSSNTAYLQLSSLTSEDTAVYYCTTGDYDGFAYWGQGTLVTVST
VL: QIVLTQSPAIMSASPGEKVTISCSARSSVSYMYWYQQKPGSSPKPWIYRTSNLASGVPARFSGSGSGTSYSLTISSMEAEDAATYYCQHYHTYPYTFGGGTKLEIK
notes: as for B1
Consider B3, for which the MFI in assay [1] amounted to 832; in assay [2] it was 5780; in assay [3], 31.7; in assay [4], 291; in assay [5] it was 30.4.

B4: 31C11G2 (antibody, V domains shown)
VH: EVQLQQSGAELVRPGASVKLSCTASGFNIKDEYIHWVKQRPEQGLEWIGWIDPANGHTEYASRFQAKATITADTSSNTAYLQLSSLTSEDTAVYYCTTGDYDGFVYWGQGTLVTVST
VL: QIVLTQSPAIMSASPGEKVTIFCSARSSVSYMYWYQQKPGSSPKPWIYRTSNLASGVPARFSGSGSGTSYSLTISSMEAEDAATYYCQHYHTYPYTFGGGTKLEIK
notes: as for B1
Turning to B4, the MFI came out at 906 in assay [1]; 4370 in assay [2]; 31.4 in assay [3]; 422 in assay [4]; 30.9 in assay [5].

B5: 31G10C5 (antibody, V domains shown)
VH: EVQLQQSGAELVRPGASVKLSCTASGFNIKDDYIHWVKQRPEQGLEWIGWIDPANGHIEYASNFQAKATITADTSSNTAYLQLSSLTSEDTAVYYCTTGDYDGFTYWGQGTLVTVST
VL: QIVLTQSPAIMSASPGEKVTISCSARSSVSYMYWYQQKPGSSPKPWIYRTSNLASGVPARFSGSGSGTSYSLTISSMEAEDAATYYCQHYHTYPYTFGGGTKLEIK
notes: as for B1
In the case of B5, the MFI was 855 in assay [1]; 4600 in assay [2]; 32.4 in assay [3]; 414 in assay [4]; 30.1 in assay [5].

B6: 37F11F9 (antibody, V domains shown)
VH: EVQLQQSGPVLVKPGASVKMSCKASGYTFTDYYMNWVKQSHGKSLEWIGLINPYSGGSTFNQKFKAKATLTVDKSSSSAYMDLNSLTSEDSAVYYCARVGDGYYGVTHGMDYWGQGTSVTVSS
VL: DIVMTPSQKFMSTTVGDRVSITCKASQNVGTAVAWYQQKPGQSPTILIYSASNRYTGVPDRFTGSGSGTDFTLTISNMKSEDLADYFCQQYYIYPFTFAAGTKLELK
notes: as for B1
B6: the MFI in assay [1] worked out at 308; in assay [2], 2520; in assay [3], 31; in assay [4], 103; in assay [5] it was 29.7.

B7: 42B7G2 (antibody, V domains shown)
VH: QVQLQQSGAELARPGASVKLSCKASGYTFTDYGISWVKQRTGQGLEWIGEIYLRNDNSYYNEKFKGKATLTADKSSNTAYMELRSLTSEDSAVYFCARWGDHGNNYEDAMDYWGQGTSVTVSS
VL: DIVLTQSPASLAMSLGKRATISCRASESVSIIGSNLIHWYQQKPGQPPKLLIYHASNLETGVPARFSGSGSRTDFTLTIDPVEEDDVAIYYCLQSRKVPYTFGGGTKLEIK
notes: as for B1
As to B7, the MFI in assay [1] is 598; in assay [2] it was 2670; in assay [3] it was 35.3; in assay [4], 216; in assay [5], 31.1.
